Assay results as given in the DeepSol protein solubility set.

Test: soluble on expression in E. coli; label from the status in PepcDB or PDB records

Row | Sequence | soluble on expression in E. coli
1 | YHETVIYEAHVKGMTQTHPSIPPELRGTYAGLAHPVIIDHLNELNVTAVELMPVHQFLHDSRLLDLGLRNYWGYNTFGFFAPHHQYASTRQAGSAVAEFKTMVRSLHEAGIEVILDVVYNHTAEGNHLGPTINFRGIDNTAYYRLMDHDLRFYKDFTGTGNSLNARHPHTLQLIMDSLRYWVIEMHVDGFRFDLASTLARELHDVDRLSAFFDLVQQDPVVSQVKLIAEPWDVGEGGYQVGNFPGLWTEWNGKYRDTVRDYWRGEPATLGEFASRLTGSSDLYEATGRRPSASINFVTAHDGFTLNDLVSYNDKHNEANGENNRDGESYNRSWNCGVEGPTDDPDILALRARQMRNMWATLMVSQGTPMIAHGDEIGRTQYGNNNVYCQDSELSWMDWSLVDKNADLLAFARKATTLRKNHKVFRRRRFFEGEPIRSGDEVRDIAWLTPSGREMTHEDWGRGFDRCVAVFLNGEAITAPDARGERVVDDSFLLCFNAHDHDVEFVMPHDGYAQQWTGELDTNDPVGDIDLTVTATDTFSVPARSLLVLRKTL | soluble
2 | MGSDKIHHHHHHMAVWNANEMPERDRFPYWREVLCEAYIALNPILEGEQRFKGEVKANLLDCINVTTISSSRQKIHRRRLDISRMPHEVYFLNLQVKGQCRMMQGSREALLEPGDFSLVDSTEPYLNDYCSDDWTQYSFRIPRAMLKPLLKQADKQTAIRFTSAHPIASVAIDYLKSVAQNAEHIGTASTPIANHIVDLVAMAAGVSTTEEDRARGTLRSQLSRSVIQFIGAHAADPTLTPAKAAQHFKISVRYVHRLLEESGETFSRLLLKRRLERCADDLRAEAAISISEIAFRWGFNDLSHFSKTFRHHFGVAPRDYRGQ | not soluble
3 | HMSKVPRNFRLLEELEKGEKGFGPESCSYGLADSDDITMTKWNGTILGPPHSNHENRIYSLSIDCGPNYPDSPPKVTFISKINLPCVNPTTGEVQTDFHTLRDWKRAYTMETLLLDLRKEMATPANKKLRQPKEGETF | soluble
4 | MAHHHHHHMQRHSSHLLLLLVAVVIPVCSEDKLDFTKLRDPFDMDEINRKLQEKVADDDPVQKAMPDPMDPKFRAPLRCSACGAVIEHAVRLLRPIIERQSERAARSGGVLPADALPKEYEMVDIFENLCGEVGRLYGLEVEKDKKRPTLRFSKSFGVSRLQGAWMPSFLTSTCEGVLDVEGEEKLAAMILGVARSEAEAGRGKVISMNPDQGIVDKVREMVCTKWEESAKGCDAYGVAIDPRETDNDDGAEEAASDL | soluble
5 | MGSDKIHHHHHHMSAPDSAPGTERGHERTHFAVVGDSQDPAQATAPRAPAESITLIGIGTDGFEGLGLKAQQALQRASVVIGSWRQLNLVPDAIKAERRPWPGNTKHPDLDALFKEFLGRHVAVLASGDPLFYGVGTAMVHVLGMDRLTVIPGPSSASLACARLGWTVNRTRVVYLGQEPIETLIPIIESGAQFLVLGKDEFSTAQVATLLNELGLGETPLTVLSDLGSTDEEITQGTASHPPAAVSVLNVIAVGARTAMPKPHFEGDVSNEDLRALTVAALEPTQGQMLWTFGDIGAALACDWLRAAGNKAHAISFASMVEQSQRNARKLGVSTLSVKETLSPKTLKDIRYVQGPESASPHAIFMNKGLGIDLVPETAWMMLRPGGKLIAQASTEDNIAKLHTLQEQHGGIIKHIRIDDTDVHQWRVTKPVTPEAVN | not soluble
6 | QMQMGLSSFDRVMDVVDMTAEHPDPEHPLDLPAGPLSLELENVHFDGILNGTTLTVPAGDTVAIVGPPGSGKTMAVQLLCGFYRPESGQIRLGGVDTTQLRRHDLRNAVSCVFDDPFLYSASIRDNIAMGRNVTDVEIERAARIAQAHDFITALPHGYDEIVGERGLTLSGGQRQRIAIARAVLERPRVLILDDATSAIDVTTEHAIYEQLSTELSDVTILAVAHRNSTLSLADSVALIDNGRIVDHGSLSYMRANPQFVYLMDVQEHLRKRNSHEPFVPFDDGTEPEWTQLWPEIASSQHDSRLTINSSAMKAAASVAGANPAAGGRGRGRGGMAASIPATPELLARVDALPPTRDTPGPRPLLDHDHGKVTAHQLFASVR | not soluble
7 | MGSDKIHHHHHHMTFAQIQTFLAVARLGNFHAAARQLNVTQAAVSARVRQLEEELDLRLFERGRRGAELTEAGRFLLPGAEAIASTWTTISKDARHFYAGRVPLRLGGQLSIWDQQLVDLVIWVEETLGALPLALNFDHEMNVQDAIRNGVLDFALTHEQPAPDLTGVALPAERLVLVGSEPFDLGQSDLPLFMNFQLGGQYDAFVARHLSGHAGQHIMMGNCAMGLRYLRKRGGIAFFPVSMVVEDIQHGHLFPVQGVPEMELACNAVYHPSSVLGDLTAQIATAARSLRSREPVVALDTMS | not soluble
8 | MGSDKIHHHHHHMQQFPRLARVGLGFRRELIPALKSGVPATIDFFEIAPENWIDLGGGAARDLLFFTERYPFVCHGLSLSIGGPAPLDEILLQKIRQFLDQHRVLLYTEHLSYCSDDGHLYDLLPIPFTEEAVKYVAERVRRTQDILERRIALENASFYVASPISDMSELDFIRAVLLEADCDLHLDVNNVYVNSINHDYDPVDFIRALPSDRIVYMHMAGHHKEAENLIIDTHGADVIDPVWSLLDQTYGMHGVAPTLLERDFNIPPLEQLMREVLHIALIQAQHADSGDASAT | not soluble
9 | MEKNGLFSQRIRLRHLHTFVAVAQQGTLGRAAETLNLSQPALSKTLNELEQLTGTRLFERGRLGAQLTVPGEQFLTHAVKVLDALNTAGQALNRKEDASADVVRVGALPTAALGILPAAIGRFHQQQKSTSLQVATMNNTMLLAGLKSGEIDLGIGRMSDPELMGGLNYELLFLESLKLVVRPGHPLLQETITLSRVMEWPVVVSPKGTVPRQNAEALLQSQGCKMPAGCIETLSASLSRQLTVDYDYVWFVPSGAVKEDLRQATLVSLPVPTQSAGEPIGILTRVDIPLSTGAQMLIAAIRKSMPL | not soluble
10 | MGSDKIHHHHHHVTSGQDKPWPPVSMGMARLTTMAFHGENMVPPAIELLKRSEADPTDSAALLDLSAIHFLLGHEEAGLAYQERALAQNQVYRDHSETASEDGVRLLAFAAPGNLMSNVPIQFLIENSDIRLDVLYVVPGLDLPERVPAHDMAMVIAGESEPNREVLERIAAFADLWPCPPVLNDPRKVLQLSRDGVSSLLSGVPGIRIPATTRVDPESLARLGRGEIALTDLLPDGSFPVIARPLDSHAGKGLAKLDDPSTIALYLAAQPAEGYYLSSFVDYRGAGGMFRKYRIALIDGKPFVCHMAVSAHWMIHYLNADMRESAEKRAEEAQAFATFDEDFAARHKDAFATMAERIGLDYFAMDCAETPDGDLLVFEADTAMIVHAMDPPDIFPYKAPQMRRIFKAFQDMLRRIKQDKQD | not soluble
11 | GAMSEAFHTHSGIGVPLRRSNVDTDQIIPAVFLKRVTRTGFEDGLFAGWRSDPAFVLNLSPFDRGSVLVAGPDFGTGSSREHAVWALMDYGFRVVISSRFGDIFRGNAGKAGLLAAEVAQDDVELLWKLIEQSPGLEITANLQDRIITAATVVLPFKIDDHSAWRLLEGLDDIALTLRKLDEIEAFEGA | soluble
12 | MGSDKIHHHHHHMDVTMGYFTIPKGPGDSTDARWYNAPGGRSIFLRPDNKGTTRAVLTLQAPIREAPESAQEQKRWLKERFADAGWEAPRVLDGLEDATDLYFDLLRQVRMKRWHKGRIALTGDAAWCATPLSGIGTTLAIVGAYVLAGELSKTHDIAQAFKCYENIMRPFVEKGQNVPKFGPRLMHPHSRLGVSFQRSALRFVSKPGIQKVLTKVAMPAADKVDLPDYQYHASS | not soluble
13 | MDHIELRKKIGQAIRTARIRRGLVMRDLAEAGGVSTGAVGNWERGANAIAMEHLQAISQKLRIDPVALSNGSLRYLDEEEALADAEQVTDFGPAPTGPMDVEVLGVAVGGDDGDFTLNGEVSGYVRRPPGIAHLRKVFALHVLSDSMIPRYDPGELIYVGGREAVAGDHVVIEMFPDEGATVGKAYVKKLKGRTKGAIVCEQYNPPKELQFDQYAIKNMWRIIPLRELLGY | not soluble
14 | MGSDKIHHHHHHLPNLQEIFKKDNFIAWDDKVYPSILNFGAPLPKPLPRIAPNNAPLARLFIEFLYYYSMFNFKENYIGARPVMVMDRRTSQNNMVRSSTNKEVCIQDPFDEHNPGRTVRTLNRIKDVMRSTYQKFLPVEGSEFTFPTLDDIINMSPEVPKPSRAEVRNFRAEATEVNRVGLGVYCRNSFV | not soluble
15 | MSLTLLKGRRKVDTIKVGILGYGLSGSVFHGPLLDVLDEYQISKIMTSRTEEVKRDFPDAEVVHELEEITNDPAIELVIVTTPSGLHYEHTMACIQAGKHVVMEKPMTATAEEGETLKRAADEKGVLLSVYHNRRWDNDFLTIKKLISEGSLEDINTYQVSYNRYRPEVQARWREKEGTATGTLYDLGSHIIDQTLHLFGMPKAVTANVMAQRENAETVDYFHLTLDYGKLQAILYGGSIVPANGPRYQIHGKDSSFIKYGIDGQEDALRAGRKPEDDSWGADVPEFYGKLTTIRGSDKKTETIPSVNGSYLTYYRKIAESIREGAALPVTAEEGINVIRIIEAAMESSKEKRTIMLEHEGHHHHHH | soluble
16 | MGHHHHHHSHMDNAERPRARRRRKPRVLFSQAQVYELERRFKQQRYLSAPERDQLASVLKLTSTQVKIWFQNRRYKCKRQRQDQTLELVGLPPPPPPPARRIAVPVLVRDGKPCLGD | soluble
17 | MSLQTKHIDDLKEALMCQRNNDDKLEDLVGKIVNDYHTYAGKRSELSYRCCAHYFAPSWNTPIENSMLWMGGCRPSSFIRLIYALCGSQAETQLSQYLLKIDDDFDINHGGFMSDLTATQLGKLNDLHLEVIKKEDKITKTSANFQDDVADLPIADVVHADVAVEDALDKHEEGMAVLLAEADKLRFETLRKIVDVVTPLQAVEFLLAGKRLQLSLHDRGRVRADVCGGVGGAAV | soluble
18 | MGSDKIHHHHHHMMKSNENNGAVTKSFAKKMESISPFELKNKLIEMADESIKKIAHTMLNAGRGNPNWIATTPREAFFLLGKFGLEECRRVMYLPEGIAGIPQKDGIAARFETFLKTNHSQPGAELLKGTYQYMLLEHAADPDTLVHEWAEGVVGDQYPVPDRILQFTEMIVQDYLAQEMCDRRPPKGKYDLFATEGGTAAMCYVFDSLQENFLLNKGDGIALMVPVFTPYIEIPQLRRYEFNVTEISADQMTTDGLHTWQYKDEDIDRLRNPQIKALFITNPSNPPSYTLSPETAARIVDIVKKDNPNLMIITDDVYGTFSPHFRSLMAELPQNTLCVYSFSKYFGATGWRDAVIALHEENIFDRMIAHLPEEQKTILNKRYSSLTLTPEKLKFIDRMVADSRQVALNHTAGLSLPQQTQMSLFASFAILDKENRYKNKMQEIIRRRLKALWDNTGFSLVDDPLRVGYYSEIDMLVWAKIFYGEEFVSYLKKTYSPLDVVFRLANETSLVLLNGGGFAGPEWSVRVSLANLNEKDYVKIGQGIKRILDEYAVKWQESRK | not soluble
19 | MGSDKIHHHHHHMDRWTQLQLFVLTADLGSLSKAAEQLDMSNAAASRTLSSLEERLGARLIERTTRRMWLTDAGREYHRRCTAVIAELAEADAIASEEVVNPRGVLRVTSSVSFAMMHLAPALPEFLKRYPNLTVQITATNQYQNFIESGIDIAIRTKEHEGDSCITIRRLAETRRVLAASPAYLATHGRPQKPEDLAQHNMLVYNLAVDPYLLHLRRGKEERNIAIASALDSNEGQVIVAAGRAGLGIVVQPLYIIHDDIVSGRLVPVLEDWQLPRLTINLAYQSRRYQPAKIRVFTDFLIERVKNLNLEERWMTFAA | not soluble
20 | MRISKMLVTELNIYPLKSARGIALKESAVSAEGLPGDRRAMLTDPSGHFITQRELPAIATVLARHEDGGMALSRERSGEIFARPSGQRMDVAVWKSIVSANIADDETNDTLSAWLGREVKLVFFDDAAKRIASLEWTGNETPVTFADGYQILVTTTASLAALNDNMRGNGEDAVGMERFRPNIVLETEEAWAEDRWAAIEIGGIRFDLVKPCARCIMTTQDQMTGSRDVPSPMKAMGRIRMSGDRRVPGPLFGWNVTPRGEGRLSVGDVARVVEERPEGWAIKRR | soluble
